# Source: patent US20250281533A1 (LG CHEM, published 2025)
# Target: T1, mucin1 (MUC1) naturally expressed on human breast cancer cell lines (human, UniProt P15941 24-1255)
# T1 construct: whole, on cells; The cell line of each entry is named under assay or readout; also called MUC1 on T47D cells; MUC1 on HCC70 cells
# Assay: flow cytometry (PE MFI, corrected to G03 at 380 ug/mL) on T47D cells
# T1 sequence (P15941 24-1255): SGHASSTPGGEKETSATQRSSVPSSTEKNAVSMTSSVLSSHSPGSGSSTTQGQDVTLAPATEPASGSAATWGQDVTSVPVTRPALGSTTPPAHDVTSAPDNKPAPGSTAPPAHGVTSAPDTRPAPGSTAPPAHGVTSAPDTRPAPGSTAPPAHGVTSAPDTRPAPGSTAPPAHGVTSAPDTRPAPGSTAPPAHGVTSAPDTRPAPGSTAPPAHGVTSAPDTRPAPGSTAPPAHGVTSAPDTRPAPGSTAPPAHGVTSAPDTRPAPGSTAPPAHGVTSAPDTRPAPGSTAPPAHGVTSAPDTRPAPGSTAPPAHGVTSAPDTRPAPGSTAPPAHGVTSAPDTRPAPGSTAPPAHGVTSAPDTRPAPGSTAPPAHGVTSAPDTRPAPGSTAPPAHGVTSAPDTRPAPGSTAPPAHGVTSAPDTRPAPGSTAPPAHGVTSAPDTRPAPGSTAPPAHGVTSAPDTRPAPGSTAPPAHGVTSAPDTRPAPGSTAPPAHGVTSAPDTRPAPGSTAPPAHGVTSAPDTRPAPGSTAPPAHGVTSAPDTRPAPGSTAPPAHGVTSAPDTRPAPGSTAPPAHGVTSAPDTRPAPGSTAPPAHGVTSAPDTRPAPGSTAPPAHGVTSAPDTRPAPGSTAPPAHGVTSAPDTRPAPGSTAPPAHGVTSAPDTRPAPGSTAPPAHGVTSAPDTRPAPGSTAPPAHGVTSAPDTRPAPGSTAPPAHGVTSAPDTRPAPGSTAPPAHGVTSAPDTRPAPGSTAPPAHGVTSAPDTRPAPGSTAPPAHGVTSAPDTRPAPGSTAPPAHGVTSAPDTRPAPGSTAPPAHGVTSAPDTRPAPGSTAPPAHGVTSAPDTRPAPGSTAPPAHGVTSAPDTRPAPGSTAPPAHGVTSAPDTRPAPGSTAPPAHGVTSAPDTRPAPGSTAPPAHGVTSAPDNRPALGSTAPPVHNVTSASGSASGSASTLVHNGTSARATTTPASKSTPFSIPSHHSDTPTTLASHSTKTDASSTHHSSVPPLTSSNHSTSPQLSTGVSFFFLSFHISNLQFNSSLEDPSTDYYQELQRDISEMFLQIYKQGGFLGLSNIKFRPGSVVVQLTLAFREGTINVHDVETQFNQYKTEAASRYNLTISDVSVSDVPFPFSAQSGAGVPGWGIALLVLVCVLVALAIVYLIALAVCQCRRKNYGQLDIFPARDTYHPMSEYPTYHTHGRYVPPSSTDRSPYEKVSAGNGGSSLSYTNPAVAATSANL
row,Binder,EC50 [µg/mL]
1,positive control scFv G03 (scFv) scFv: EVQLVQSGAEVKKPGATVKISCKVSGYTFTSYWMHWVQQAPGKGLEWIGYINPGTGYIEYNQKFKDRVTITADKSTDTAYMELSSLRSEDTAVYYCASSTAPFDYWGQGTLVTVSSGGGGSGGGGSGGGASEIVLTQSPGTLSLSPGERATLSCKASQDIKSYLSWYQQKPGQAPRLLIYYATRLADGIPDRFSGSGSGTDFTLTISRLEPEDFAVYYCLQYDESPYTFGQGTKLEIK,3.56
2,scFv 2447_3A01 (scFv) scFv: EVQLLESGGGLVQPGGSLRLSCAASGFTFDDYAMHWVRQAPGKGLEWVSGISWNSGSIVYADFVKGRFTISRDNAKNSLYLQMNSLRAEDTALYYCAKDISSGWYPGTFDYWGQGTLVTVSSGGGGSGGGGSGGGASSYELTQDPAVSVALGQTVRITCQGDSLRSYYASWYQQKPGQAPVLVIYGKNNRPSGIPDRFSGSSSGNTASLTVTGAQAEDEADYYCSSRDSSDDVVFGGGTQLTVL,11.1
3,scFv 2447_3A08 (scFv) scFv: EVQLVQSGAEVKKPGASVKVSCKASGYTFTSYGISWVRQAPGQGLEWMGWISAYNGNTNYAQKLQGRVTMTTDTSTSTAYMELRSLRSDDTAVYYCARDRATIFGVVTPFDYWGQGTLVTVSSGGGGSGGGGSGGGASSYELTQDPAVSVALGQTVRITCQGDSIRSYSASWYQQKPGQAPRLVIYGKNNRPSGIPDRVSGSTSGNTASLTVTGAQAEDEADYYCNSRDSSGNRVVFGGGTQLTVL,3.76
4,"scFv 2447_3A09 (scFv, also called #5) scFv: EVQLLESGGGLVQPGRSLRLSCAATGFTFDDYAMHWVRQAPGKGLEWVSGISWNSGSIGYADSVKGRFTISRDNAKNSLYLQMNSLRAEDTASYYCAKDVSSGWYWYAFDIWGQGTLVTVSSGGGGSGGGGSGGGASSYELTQDPAVSVALGQTVRITCQGDSLRSYYASWYQQKPGQAPVLVIYGKNNRPSGIPGRFSGSSSGNTASLTVTGAQAEDEADYYCNSRDSGGSVVFGGGTKLTVL",2.2
5,"scFv 2447_3A12 (scFv, also called #6) scFv: EVQLVQSGAEVKKPGASVKVSCKASGYTFTSYGISWVRQAPGQGLEWMGWISAYNGNTNYAQKLRGRVTMTTDTSTSTAYMELRSLRSDDTAVYYCARDPHILTGYYRGGWFDPWGQGTLVTVSSGGGGSGGGGSGGGASSYELTQDPAVSVVLGQTVRITCQGDSLRSYYASWYQQKPGQAPVLVIYGKNNRPSGIPDRFSGSSSGNTASLTITGAQAEDEADYYCNSRDSSGNHRVFGGGTKLTVL",0.75
6,scFv 2447_3C08 (scFv) scFv: EVQLLESGGGLVQPGGSLRLSCAASGFTFDDYAMHWVRQAPGKGLEWVSGISWNSGSIGYADSVKGRFTISRDNAKNSLYLQMNSLRAEDTALYYCAKDRGSGYEGNYYGMDVWGQGTLVTVSSGGGGSGGGGSGGGASSYELTQDPAVSVALGQTVRITCQGDSLRSYYASWYQQKPGQAPVLVIYGKNNRPSGIPDRFSGTTSGNTASLTITGAQAEDEADYYCNSRDSSGNHYVFGTGTKVTVL,2.04
7,"scFv 2447_3H02 (scFv, also called #9) scFv: EVQLLESGGGLVQPGRSLRLSCAASGFTFDDYAMHWVRQAPGKGLEWVSGISWDSGSIGYADSVKGRFTISRDNAKNSLYLQMNSLRAEDTALYYCAKDVSSGWYWYAFDIWGQGTLVTVSSGGGGSGGGGSGGGASSYELTQDPAVSVALGQTVRITCQGDILRSYYASWYQQKPGQAPVLVIYGKNNRPSGIPDRFSGSSSGNTASLTITGAQAEDEADYYCNSRDSSGNRVVFGGGTKLTVL",1.6
8,"scFv 2447_3H08 (scFv, also called #10) scFv: EVQLLESGGGLVQPGRSLRLSCAASGFTFDDYAMHWVRQAPGKGLEWVSGISWNSGSIDYADSVKGRFTISRDNSKNTLYLQMNSLRAEDTAVYYCARDRSSGWYTGSFDYWGQGTLVTVSSGGGGSGGGGSGGGASSYELTQDPAVSVALGQTVRITCQGDSLRSYYASWYRQKPGQAPVLVIYGKNNRPSGIPDRFSGSSSGNTASLTIIGAQAEDEADYYCQSRDSSDNRVLFGGGTKVTVL",5.6
9,scFv 2447_2H08 (scFv) scFv: EVQLVQSGAEVKKPGASVKVSCKASGYTFTNYGISWVRQAPGQGLEWMGWISAYNGNTNYAQKLQGRVTMTTDTSTSTAYMELRSLRSDDTAVYYCARDPHILTGYYRGGWFDPWGQGTTVTVSSGGGGSGGGGSGGGASSYELTQDPAVSVALGQTVTITCQGDSLRTSYAGWLQQKPGQAPVLVLYGKTSRPSGIPDRFSGSTSGNTASLTITGAQAEDEAEYFCHSRDSNDNYLEVVFGGGTKLTVL,130
10,scFv 2447_3B07 (scFv) scFv: QVQLVESGGVVVQPGGSLRLSCAASGFTFDDYAMHWVRQAPGRGLEWVSLTSWDGGSTYYADSVKGRFTISRDNSKNSLYLQMNSLRAEDTALYYCAKDHSSGWYNGGMDVWGQGTMVTVSSGGGGSGGGGSGGGASSYELTQDPAVSVALGQTVRITCQGDSLRSYYASWYQQKPGQAPVLVIYGKNNRPSGIPDRFSGSSSGNTASLTITGAQAEDEADYYCNSRDSSGNHVVFGGGTKLTVL,3.47
